Positions count from the first letter of the chain named. Names may count otherwise.

Nine molecules from patent US20200199241A1 (Chugai, published 2020) can be followed below.

B1: IL6R-B3/IL6R-L (antibody, human IgG1)
heavy: not shown
light: DIQMTQSPSSLSASVGDRVTITCRASQDISSYLNWYQQKPGKAPKLLIYYTSRLHSGVPSRFSGSGSGTDFTFTISSLQPEDIATYYCQQGNTLPYTFGQGTKVEIK
notes: IgG1; IL6R-G1d with K439E (EU); also called parent polypeptide; copies: 2 + 2
B2: IL6R-G1d/IL6R-L (antibody, human IgG1)
heavy: not shown
light: B1 light
notes: IgG1 (G1d constant region) antibody to human IL-6 receptor; also called IgG1 (IL6R-G1d); copies: 2 + 2
B3: IL6R-BP102/IL6R-L (antibody, human IgG1)
heavy: QVQLQESGPGLVKPSETLSLTCAVSGHSISHDHAWSWVRQPPGEGLEWIGFISYSGITNYNPSLQGRVTISRDNSKNTLYLQMNSLRAEDTAVYYCARSLARTTAMDYWGEGTLVTVSSASTKGPSVFPLAPSSKSTSGGTAALGCLVKDYFPEPVTVSWNSGALTSGVHTFPAVLQSSGLYSLSSVVTVPSSSLGTQTYICNVNHKPSNTKVDKKVEPKSCDKTHTCPPCPAPELLGGDSVFLFPPKPKDTLMISRTPEVTCVVVDVQHEDPEVKFNWYVDGVEVHNAKTKPREEQYNSTYRVVSVLTVLHQDWLNGKEYKCKVSNKALPAPIEKTISKAKGQPREPQVYTLPPSRDELTKNQVSLTCLVKGFYPSDIAVEWESNGQPENNYKTTPPVLDSDGSFFLYSKLTVDKSRWQQGNVFSCSVMHEALHNHYTQESLSLSP
light: B1 light
notes: IgG1; Fc variant of IL6R-B3; copies: 2 + 2
B4: IL6R-BP119/IL6R-L (antibody, human IgG1)
heavy: B3 heavy with Q269S, K328M
light: B1 light
notes: as for B3
B5: IL6R-BF648/IL6R-L (antibody, human IgG1)
heavy: not shown
light: B1 light
notes: IgG1; Fc variant of IL6R-B3; control (= 100) of the relative values; copies: 2 + 2
B6: IL6R-BP118/IL6R-L (antibody, human IgG1)
heavy: B3 heavy with Q269S, K328S
light: B1 light
notes: as for B3
B7: IL6R-BP116/IL6R-L (antibody, human IgG1)
heavy: B3 heavy with Q269S, K328T
light: B1 light
notes: as for B3
B8: IL6R-BP103/IL6R-L (antibody, human IgG1)
heavy: B3 heavy with Q269V
light: B1 light
notes: as for B3
B9: IL6R-BP100/IL6R-L (antibody, human IgG1)
heavy: B3 heavy with Q269A
light: B1 light
notes: as for B3

In the first test the target is T1, FcγRIIb (human, UniProt P31994 43-217, limits assumed).
T1 construct: also called FcgRIIb; FcγIIB
T1 sequence: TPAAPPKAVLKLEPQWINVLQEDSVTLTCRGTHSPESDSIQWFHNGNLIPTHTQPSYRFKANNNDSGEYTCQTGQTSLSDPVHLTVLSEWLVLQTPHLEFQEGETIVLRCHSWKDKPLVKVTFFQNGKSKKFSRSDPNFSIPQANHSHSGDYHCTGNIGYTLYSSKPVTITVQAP
The test can be described thus: SPR (Biacore), KD of IL6R-B3/IL6R-L divided by KD of the variant.
Source text: Furthermore, KD(IIaR)/KD(IIb) and KD(IIaH)/KD(IIb) in the table respectively represent the value obtained by dividing the KD value of each variant for FcγRIIaR by the KD value of each variant for FcγRIIb, and the value obtained by dividing the KD value of each variant for FcγRIIaH by the KD value of each variant for FcγRIIb. KD(IIb) of the parent polypeptide/KD(IIb) of the altered polypeptide refers to the value obtained by dividing the KD value of the parent polypeptide for FcγRIIb by the KD value of each variant for FcγRIIb.
For B1, the “KD(IIb) of the parent polypeptide/KD(IIb) of altered polypeptide” value (“KD(IIb) … of altered polypeptide” for short) is 1 fold.

For the molecule B2, the “KD(IIb) … of altered polypeptide” value came out at 1.2 fold.

As for B3, the “KD(IIb) … of altered polypeptide” value was 3.4 fold.

B4: the “KD(IIb) … of altered polypeptide” value worked out at 2.7 fold.

Consider B5, for which the “KD(IIb) … of altered polypeptide” value amounted to 2.6 fold.

In the case of B6, the “KD(IIb) … of altered polypeptide” value is 2.7 fold.

B7: the “KD(IIb) … of altered polypeptide” value came out at 2.8 fold.

Consider B8, for which the “KD(IIb) … of altered polypeptide” value was 2.5 fold.

B9: the “KD(IIb) … of altered polypeptide” value was 2.9 fold.

The next test has as its target T1, FcγRIIb. The test can be described thus: SPR (Biacore); KD for FcγRIIaR divided by KD for FcγRIIb of the same antibody.
With B1, the “KD(IIaR)/KD(IIb)” value was 0.3.

B2: the “KD(IIaR)/KD(IIb)” value worked out at 0.4.

Consider B3, for which the “KD(IIaR)/KD(IIb)” value was 9.4.

Take B4: the “KD(IIaR)/KD(IIb)” value came out at 8.7.

In the case of B5, the “KD(IIaR)/KD(IIb)” value amounted to 13.

On to B6, for which the “KD(IIaR)/KD(IIb)” value came out at 13.2.

Consider B7, for which the “KD(IIaR)/KD(IIb)” value turned out to be 13.3.

As for B8, the “KD(IIaR)/KD(IIb)” value was found to be 9.

Consider B9, for which the “KD(IIaR)/KD(IIb)” value turned out to be 7.3.

Another test has as its target T2, FcγRIIa type R (human, UniProt P12318 36-217).
T2 construct: also called FcγRIIaR; FcgRIIaR
T2 chain: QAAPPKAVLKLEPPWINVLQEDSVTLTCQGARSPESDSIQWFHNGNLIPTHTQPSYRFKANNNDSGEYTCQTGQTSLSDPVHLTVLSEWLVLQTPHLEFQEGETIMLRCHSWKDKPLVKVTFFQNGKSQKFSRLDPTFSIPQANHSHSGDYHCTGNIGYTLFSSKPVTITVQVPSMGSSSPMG
Kind of test: SPR (Biacore), FcγR over captured antibody.
For B1, the Kd (as a rule, the constant that tells how readily two partners part at equilibrium) is 1100 nM.

B2: the affinity, expressed as Kd, was 1000 nM.

B3 yielded a Kd of 8400 nM.

Regarding B4, the Kd amounted to 9900 nM.

Take B5: binding was characterised by a dissociation constant (Kd) of 15000 nM.

B6 yielded a Kd of 15000 nM.

The molecule B7 returned a dissociation constant Kd of 15000 nM.

Molecule B8 showed a Kd of 11000 nM.

As to B9, the Kd worked out at 7800 nM.

A further test has as its target T1, FcγRIIb. Kind of test: SPR (Biacore), FcγR over captured antibody.
As to B1, the affinity, expressed as Kd, was 3100 nM.

B2 gave a dissociation constant Kd of 2600 nM.

As to B3, the Kd was 900 nM.

In turn, B4 returned a Kd of 1100 nM.

B5 displayed a Kd of 1200 nM.

In turn, B6 came in with a Kd of 1200 nM.

B7 came in with a Kd of 1100 nM. The Kd values of the last two molecules are within 1.5-fold of each other.

B8 yielded a Kd of 1200 nM.

Molecule B9 gave a Kd of 1100 nM.

For a further test, the target named is T3, FcγRIa (human, UniProt P12314 16-292, limits assumed).
T3 construct: also called FcgRIa; CD64
T3 sequence (P12314 16-292 limits assumed): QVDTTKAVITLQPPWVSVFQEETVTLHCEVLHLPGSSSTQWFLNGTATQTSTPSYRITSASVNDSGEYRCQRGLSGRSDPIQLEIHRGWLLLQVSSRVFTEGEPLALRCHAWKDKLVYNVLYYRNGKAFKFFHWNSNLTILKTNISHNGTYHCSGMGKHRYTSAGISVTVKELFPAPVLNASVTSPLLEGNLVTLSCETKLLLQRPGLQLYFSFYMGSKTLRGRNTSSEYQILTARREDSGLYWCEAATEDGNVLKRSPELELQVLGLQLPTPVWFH
The test can be described thus: SPR (Biacore), FcγR over captured antibody. In general terms: Surface plasmon resonance follows binding to a sensor surface in real time, without labels.
Regarding B1, the Kd stood at 0.42 nM. This counts as sub-nanomolar.

In the case of B2, binding was characterised by a dissociation constant (Kd) of 0.32 nM.

In turn, B3 had a Kd of 8.2 nM.

Take B4: the Kd is 7 nM.

Turning to B5, the Kd is 11 nM.

B6: binding was characterised by a dissociation constant (Kd) of 12 nM.

On to B7, for which the Kd turned out to be 2.6 nM.

For B8, the dissociation constant (Kd) came out at 35 nM.

On to B9, for which the dissociation constant (Kd) came to 1.1 nM.

Another test concerns the target T4, FcγRIIa type H (human, UniProt P12318 36-217).
T4 construct: also called FcγRIIaH; FcγRIIH
T4 sequence: T2 chain with R133H
Kind of test: SPR (Biacore), FcγR over captured antibody.
On to B1, for which the affinity, expressed as Kd, was 770 nM.

In the case of B2, the Kd came out at 670 nM.

For B3, the Kd is 61000 nM. This Kd lies about 91-fold higher than the previous one.

B4: the Kd came out at 45000 nM.

The molecule B5 returned a Kd of 40000 nM. This Kd and that of the molecule before are within 1.5-fold of each other.

As for B6, the Kd was determined as 46000 nM.

In the case of B7, the affinity, expressed as Kd, was 54000 nM. The Kd values of the last two molecules are within 1.5-fold of each other.

B8 displayed a Kd of 88000 nM. Against the preceding molecule, the Kd is about 1.6-fold higher.

Molecule B9 displayed a dissociation constant (Kd) of 46000 nM. Compared with the last molecule, the Kd is about 1.9-fold lower.

The target in another test is T5, FcγRIIIa type V (human, UniProt P08637 17-208, limits assumed).
T5 construct: also called FcγRIIIaV; FcgRIIIaV
T5 sequence (P08637 other isoform, or with tags, fused parts or gaps limits assumed): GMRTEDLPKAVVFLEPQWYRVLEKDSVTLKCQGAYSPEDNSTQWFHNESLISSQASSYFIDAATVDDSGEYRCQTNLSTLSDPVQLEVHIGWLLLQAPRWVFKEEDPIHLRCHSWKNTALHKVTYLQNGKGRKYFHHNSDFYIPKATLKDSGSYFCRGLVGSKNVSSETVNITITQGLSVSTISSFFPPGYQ
Kind of test: SPR (Biacore), FcγR over captured antibody.
In turn, B1 registered a Kd of 330 nM.

B2 registered a Kd of 350 nM.

As for B3, binding was characterised by a dissociation constant (Kd) of 82000 nM.

For B4, binding was characterised by a dissociation constant (Kd) of 56000 nM.

Consider B5, for which the Kd came to 71000 nM.

Regarding B6, the dissociation constant (Kd) is 56000 nM.

For the molecule B7, the Kd stood at 72000 nM.

B8: the affinity, expressed as Kd, was 110000 nM.

For the molecule B9, the Kd amounted to 59000 nM.

The next test concerns the target T1, FcγRIIb. Kind of test: SPR (Biacore), bound amount, IL6R-BF648/IL6R-L = 100.
Procedure: (§1) According to the following method, relative binding activities were calculated for the results of analyzing interactions with the respective FcγRs.
Consider B1, for which the relative binding activity is 58 % of control.

As to B2, the relative binding activity was 62 % of control.

In the case of B5, the relative binding activity is 100 % of control.

In another test the target is T3, FcγRIa. Described as above.
Procedure: as §1
For the molecule B1, the relative binding activity is 145 % of control.

Regarding B2, the relative binding activity was 140 % of control.

Turning to B5, the relative binding activity is 100 % of control.

The target in the next test is T4, FcγRIIa type H. The test is described as above.
Procedure: as §1
Consider B1, for which the relative binding activity is 1600 % of control.

For B2, the relative binding activity was 1670 % of control.

Regarding B5, the relative binding activity was 100 % of control.

The next test deals with T5, FcγRIIIa type V. The test is described as above.
Procedure: as §1
In the case of B1, the relative binding activity was 3260 % of control.

With B2, the relative binding activity is 3350 % of control.

With B5, the relative binding activity was 100 % of control.

The target in another test is T1, FcγRIIb. The test can be described thus: SPR (Biacore); KD for FcγRIIaH divided by KD for FcγRIIb of the same antibody.
Source text: Furthermore, KD(IIaR)/KD(IIb) and KD(IIaH)/KD(IIb) in the table respectively represent the value obtained by dividing the KD value of each variant for FcγRIIaR by the KD value of each variant for FcγRIIb, and the value obtained by dividing the KD value of each variant for FcγRIIaH by the KD value of each variant for FcγRIIb.
On to B1, for which the “KD(IIaH)/KD(IIb)” value stood at 0.2.

In the case of B2, the “KD(IIaH)/KD(IIb)” value was determined as 0.3.

With B3, the “KD(IIaH)/KD(IIb)” value was 67.6.

On to B4, for which the “KD(IIaH)/KD(IIb)” value is 39.5.

For the molecule B5, the “KD(IIaH)/KD(IIb)” value came out at 33.9.

For the molecule B6, the “KD(IIaH)/KD(IIb)” value was determined as 40.

B7: the “KD(IIaH)/KD(IIb)” value is 48.2.

With B8, the “KD(IIaH)/KD(IIb)” value was 71.5.

B9: the “KD(IIaH)/KD(IIb)” value came to 42.6.
